Laboratory results reported in US20220064329A1 (Novo Nordisk, published 2022).

Target: T1, murine FVII(a) (mouse, UniProt P70375 42-446)
T1 sequence (looked up): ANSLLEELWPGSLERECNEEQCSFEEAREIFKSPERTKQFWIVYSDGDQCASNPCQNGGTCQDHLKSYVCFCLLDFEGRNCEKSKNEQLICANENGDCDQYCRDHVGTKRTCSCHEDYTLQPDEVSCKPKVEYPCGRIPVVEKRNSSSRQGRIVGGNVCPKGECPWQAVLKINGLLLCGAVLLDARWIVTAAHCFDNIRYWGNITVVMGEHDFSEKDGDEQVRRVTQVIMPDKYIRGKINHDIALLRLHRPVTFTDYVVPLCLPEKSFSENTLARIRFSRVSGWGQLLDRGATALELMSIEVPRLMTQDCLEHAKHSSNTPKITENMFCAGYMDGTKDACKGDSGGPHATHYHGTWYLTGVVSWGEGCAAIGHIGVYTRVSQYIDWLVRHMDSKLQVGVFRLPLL
Assay: not told; stated as the reason for co-administering human FVII(a) in the mouse model

binding result: no binding
B1: biAb0001 (bispecific antibody, human IgG4 S228P, kappa)
heavy 1: QVQLQESGPGLVKPSQTLSLTCTVSGYSISSDSAWSWIRQPPGKGLEWIGYIQYSGSTNYNPSLKSRVTISRDTSKNQFSLKLSSVTAADTAVYYCARSVNYYGNSFAVGYWGQGTLVTVSSASTKGPSVFPLAPCSRSTSESTAALGCLVKDYFPEPVTVSWNSGALTSGVHTFPAVLQSSGLYSLSSVVTVPSSSLGTKTYTCNVDHKPSNTKVDKRVESKYGPPCPPCPAPEFLGGPSVFLFPPKPKDTLMISRTPEVTCVVVDVSQEDPEVQFNWYVDGVEVHNAKTKPREEQFNSTYRVVSVLTVLHQDWLNGKEYKCKVSNKGLPSSIEKTISKAKGQPREPQVYTLPPSQEEMTKNQVSLTCLVKGFYPSDIAVEWESNGQPENNYKTTPPVLDSDGSFLLYSKLTVDKSRWQEGNVFSCSVMHEALHNHYTQKSLSLSLGK
light 1: EIVLTQSPATLSLSPGERATLSCRASQGISDYLHWYQQKPGEAPRLLIKYTSQPATGIPARFSGSGSGTDFTLTISSLEPEDFAVYYCQNGHSFPLTFGQGTKLEIKRTVAAPSVFIFPPSDEQLKSGTASVVCLLNNFYPREAKVQWKVDNALQSGNSQESVTEQDSKDSTYSLSSTLTLSKADYEKHKVYACEVTHQGLSSPVTKSFNRGEC
heavy 2: not shown
light 2: DIVMTQTPLSSPVTLGQPASISCRSSQSLVHRQGNTYFHWLQQRPGQPPRLLIYKVSNRFSGVPDRFSGSGAGTDFTLKISRVEAEDVGVYYCSQSTHVPYTFGQGTKLEIKRTVAAPSVFIFPPSDEQLKSGTASVVCLLNNFYPREAKVQWKVDNALQSGNSQESVTEQDSKDSTYSLSSTLTLSKADYEKHKVYACEVTHQGLSSPVTKSFNRGEC
notes: also called anti-FVII(a)/anti-TLT-1 bispecific antibody; mAb0865 x mAb1076
